# From the nanobody polyreactivity screen of Harvey et al. (2022)
# Assay: yeast display, Sf9 membrane polyspecificity reagent, FACS + sequencing; frameworks hold sequencing errors
# Method in brief: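 Using colony PCR, genes from sorted yeast display clones were amplified, then sequenced on MiSeq at 2 × 250 and filtered by CDR length. The clones had been stained with 10% biotinylated, detergent-solubilized Sf9 membrane reagent for 1 hour at 4 °C and sorted by FACS into low and high (top ~1%) gates on anti-HA and streptavidin fluorescence. Polyreactivity labels come from the gate of origin.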
row,Sequence,polyreactivity (PSR sort gate)
1,QVQIVESGGGLVQAGGSLRLSCAASGNTFNYYTMGWYIQAPGKERELVAAIRSGGRTYYADSVKGRFTISRDNANNSVSLQMNSLKPEDTAVYFCAALAVTYRYDYWGQGTQLTVSS,high polyreactivity
2,QVQLVESVGGLVQAGCTLPLSCAASGLIFYLYAMGWYRQATGKERELVARISRGGSTNYADSVKGRFTISRDNAKNTVYLQMNSLNPDDTAVYYCAADWFFSLGEMYYWGQGTQVTVSS,low polyreactivity
3,QVQLVESGGGLDQAGGSLPLSCAASGLTFSSYAMGWYRQAPGKESELVATITSSGGDNTNYADSVKGRFTISRDNAKNTVYLQMNSLKPEDTAVYYCNKEGQQSYRWRMDYWGQGTQVTVSS,low polyreactivity
4,QFQLVESGRGLVQAGGSLRLICAASGSIFIPYAMGWYRQAPGKERELVAAISSSGSTYYADSVKGRFTISRDNAKNTVYLQMNSLKPEDTAVYYCAAERHYSYSSYDYWGQGTQVTVSS,low polyreactivity
5,QVQLVESGGGLVQAGGSLRLSCAASGRTFDLYAMGWYRQAPGKERELVATISRTGSTNYADSVKGRFTISRDNAKNTVYLQMNSLKPEDTAVYYCNADVPVSRWLRHGYYTVGYDYWGQGTQVTVSS,low polyreactivity
6,QVQLVESGGGLVQAGGSLRLSCAASGSTFGYYAMGWYRQAPGKERELVATMSATGGSTYYADSVKGRFTISRDKAKNTVYLQMNSLKPEDTAVYYCNAEYDRGNEYDYWGQGTQVTVSS,low polyreactivity
7,QVQLVESGGGLVQAGGSLRLSCAASGYIFKFYTMGWYRQAPGKERELVAAISRSGGSTYYADSVKGRFTISRDNAKNTVYLQLNSLKPEDTAVYYCARPRTRQGDYWGQGSQVTVSS,high polyreactivity
8,QVQLVESGGGLVQAGGSLRLSCAASGSIFYVNGMGWSRQAPGKERELVARITLSGTSTYYADSVKGRFTISRDNAKNTVYLQMNSLKPEDTAVYYCAAPYFTYGQDDDDYWGQGTQVTVSS,low polyreactivity
9,QVQLVESGGGLVQAGGSLRLSCAASGRIFPTNAMGWYRQAPGKERELVAGISSSGGSTYYADSVKGRFTISRDNAKNTVYLQMNSLKPEDTAVYYCNAVGYQYLRVYYWGQGTQVTVSS,low polyreactivity
10,QVQLVESGGGLVQAGGSLRLSCAASGITFVNYAMGWYRQAPGKERELVAAISNGGSTYYADSVKGRFTISRDNAKNTVYLQMNSLKPEDTAVYYCAAKPVQKFRPRYGYWGQGTQVTVSS,high polyreactivity
11,QVQLVESGGGLVQAGGSLRLSCAASGRTFWYYPMGGYRQEPGKERELVAAITRGTSTYADSVKGRFTISRDNAKTTVYLQMNSLKPEDTAVDYCAADTWGTRNSRYDYWGQGTQVTVSS,high polyreactivity
12,QVQLVESGGGLVQAGGSLRLSCAASGSNFYFYAMGWYRQAPGKERELVAAISFTDTSTYYADSVKGRFTISRDNAKNTVYLQMNSLKPEDTAVYYCAADFTQYYYWTRYEYWGQGTQVTVSS,high polyreactivity
13,QVQLVETGGGLVQAGGSLRLSCAASGSIFRYNAKGWYRQAPGKEREFVAAITRSGGSTYADSVKGRFTISRDNAKNTVSLQLNSLKPEDTAVYYCAATRLSRYEYWGQGTQVTVSS,low polyreactivity
14,QVQLVESGGGLVQAGGSLRLSCAASGYTLFRNAMGWYRQAPGKERELVAAISRSGARTYYADSVKGRFTISRDNAKTTVYLQMNSLKPDYTAVYYCAAVIKWTKDDYWGQGTQVTVSS,high polyreactivity
15,QVQLVESGGGLVQAGGSLRLSCAASGIIFPSYVMGWYRQAPGKERELVAVITWSGGSTYYADSVKGRFTISRDNAKNTVYLQMNSLKPEDTAVYYCARRRRWVHSFDYWGQGTQVTVSS,high polyreactivity
16,QVQLVESGGGLVQAVGSHRLSSAASGFTFRWYTMGWYRQAPGKERELVASIRYGGGSTYYADSVKGRFTISRDNAKNTVYLQMNCLKPEDTAVYYCAAESAWTSPYDYWGQGTQVTVSS,high polyreactivity
17,QVQLVESGGGLVQAGGSLRLSCAPSGGTIAPYAMGWYRQASGKESELDATISNSGTSTNYADSVKGRFTISRDNAKNTVYLQMNSLKPEDTAVYYCAKRYHQYRWRGWLWGFDYWGQGTQVTVLS,high polyreactivity
18,QVQLVESGGGLVQAGGSLRLSCAASGSIFTYNAMGWYRQAPGKERELVAAISSRGTSTYYADSVKGRFTISRDNAKNTVYLQMNSLKPEDTAVYYCAAVWVSQRRPWGNTNNYWGQGTQVTVSS,high polyreactivity
19,QVRLVESGGGLVQAGGSLRLSCAASGRIFVYNAMGWYRQPPGKERELVASISWSGDSTYADSVKGRFTISRDNAKNTVYLQMNSLKPEDTAVYYCAAYSQADYQNMDYWGQGTQVTVSS,low polyreactivity
20,QVQHVESGGGLVQAGGSLRLSCAASGFTFRYNAMGWYRQAPGKKGSWVAAISRTGGSTYYADSVKGRFTISRDNAKNTVYLQMNSLKPEDTAVYYCARAPEGTGGKYGYWGQGTQVTVSS,high polyreactivity
21,QVQLVESGGGLVQAGGSLRLSCAASGRIFPYYAMGWYRQAPGKEWELVAAISSSSGSTYYADTVKGRFTISRDNAKNTVYLQMNSLKPEDTAVYYCAARKSWRYNIWSRNAYEDWGQGTQVTVSS,high polyreactivity
22,QVQLVESGGGLVQAGGSLRLSCAASGINNSVNDMGLYRQAPGKERELVAAISSGDSTNYADSVKGRFTISRDNAKNTVYLQMNSLKPEDTAGYYCAALEGCLTGWQTYDYWGQGTQVTVSS,low polyreactivity

row,Sequence,polyreactivity (PSR sort gate)
1,QVQLVESGGGLVQAGGRLRLSCAASGYTFGVYDMGWYRQAPGKERELVAAISGSTYYADSVKGRFTISRDNAKNTVYLQMNSLKPEDTAVYYCAAESYFFSPRTREKFDYWGQGTQVTVSS,low polyreactivity
2,QVQLVESVGGLVQAGGSLRLSCAASGSTFGINAMGWYRQAPGKERELVASITRRGGSTYYADSVKGRFTISRDNAKNTVYLQMNSLKPEDTAVYYCNKTYRYGTPLYDYWGQGTQVTVSS,high polyreactivity
3,QVQLVESGGGLVQAGGSLRLSCAASGLTFDPYAMGWYRQAPGKERELVADISDGASTYYADSVKGRFTMSRDNAKNTVYLQMNSLKPEDTAVYYCNVDVGWYAFTDAYDYWGQGTHVTVSS,low polyreactivity
4,QVQLVESGGGLVQAGGSLRLSCAASGIIFYYYAMGWYRQAPGKERELVAAISTSGGRTYYADSVKGRFTISRDNAKNTVYLQMNSLKPEDTAVYYCNTKVISRTSERRGNGFTRYDYWGQGTQVTVSS,low polyreactivity
5,HVQLQESGGGLVQAGGSLRLSCAASGSIFQATYMGWYRQAPGKEREFVASITNGSITNYADSVKGRFTIGRDNEKDTLYLQMNSLKPEDSAVYYCAVDRQYIPAFHYWGQGTQVTVSS,low polyreactivity
6,QVQLVESGGGLVQAGGSLRLSCAASGRIFYGYARGWYRQAPGKERELVATITWSGGSTYYADSVKGRFTISRDNAKNTVYLQMNSLNPEDTAVYYCAAYSPYIYQAYRYDYWGQGTQVTVSS,low polyreactivity
7,QVQLVESGGGLVQAGGSLRLSCAASGRTFQQNAMGWYRQAPGKERELVAAINSRGGRTYYADSVKGRFTISRDNAKNTVYLQMNSLKPEDTAVYYCNAVVYTRPYTRPRYRYDYWGQGTQVTVSS,high polyreactivity
8,QVQLVESGGGLVQAVGSLRLSCAASGSILASNAMGWYRQAPGKERELVAAITTSGGSTYYADSVKGRFTISRDNAKNTVYLQMNSLKPEDTAVYYCNAEYWLGRWLRYGYWGQGTQVTVSS,high polyreactivity
9,QVQLVESGGGLVQAGGSLRLSCAASGRIFVYNAMGWYRQAPGKERELVASISSTTSTYYADSVKGRFTISRDNAKNTVYLQMNSLKPEDTAVYYCNARYQTRYGRYWYKVRGMDYWGQGTQVTVSS,high polyreactivity
10,QVQLVESGGGLVQAGGSLRLSCAASGSIFFYAMGWYRQAPGKERELVADITYTGGSKYADSEKGRFTISRDNAKNTVYLQMNSLKPEETAVYSGATLDGGLFDDWGQGTQVTVSS,low polyreactivity
11,QVQLVESGGGLVQAGGSLRLSCAASGFIFYVYAMGWYRQAPGKERELVAAISADGGITYYADSVKGRFTISRDNAKNTVYLQMNSLKPEDTAVYYCNTLGDQDAYAGFRLDYWVQGTQVTVSS,low polyreactivity
12,QVQLVESGGGLVQAGGSLRLICAASGSIFGRYSMGWYRQAPGKERELVAAINYSGGRTYYADSVKGRVTISRDNAKNTVYLQMNSLKPEDTAVYYCAAAQFPDRNYNYWGQGTQVTVSS,high polyreactivity
13,QVQLVESGGGLVQAGGSLRLSCAASGLILVYYAMGWYRQAPGKERELVAAITPGGSTKYADSVKGRFTISRDNAKNTVYLQMNSLKPEDTAVYYCYALSGPYWYSVYQSHQDDYWGQGTQVTVSS,low polyreactivity
14,QVQLVESGGGLVQAGGSLRLSCAASGSTFGRNAMGWYRQAPGKERELVAAINWSDGSTHYADSVKGRFTISRDNAKNTVYLQMNSLKPEDTAVYYCGADAWSWPVDYNYWGQGTQVTVSS,low polyreactivity
15,QVQLEESGGGLVQAGGSLRLSCAASGRIFWYYDMGWYRQAPGKERELVAAISQRGGSTYYADSVKGRFTISRDNAKNTVYLQMNSLKAEDTAVYYCAKRNPYWATREYWGQGTQVTVSS,high polyreactivity
16,QVQLVESGGGLVQAGGSLRLSCAASGRTFASYAMGWYRQAPGKERELVASIRYSGGSTHYADSVKGRFTISRDNAKNPVYLQMNSLKPEDTAVYYCNARPKFRTYNYWGQGTQVTVSS,high polyreactivity
17,QVQLVESGGGLVQAGGSLRLSCAASGYTLKYYAMGWYRQAPGKERELVAVISRGGSTYYADSVKGRFTISRDNAKNTVDLQMNSLKPEDTAVYYCAKRPTQGYYPYGYWGQGTQVTVSS,high polyreactivity
18,QVQLVESGGGLVQAGGSLRLSCAASGRIFTRYAMGWYRQAPWKERELVAVITRSGGSTYYADSVKGRFTISRDNAKNTVYFKMNSLIPEDTAVYYCAVRPYELHRLADQPGGDDYWGQGTQVTVSS,low polyreactivity
19,QVQLVESGGGLVQAGGSLRLSCAASGRIFVHYVMGWYRQAPGKERELVAAISRSGGRTYYADSVKGRFTISRDNAKNTVYLQMNSLKPEDTAVYYCATDASTYKYDYWGQGTQVTVSS,high polyreactivity
20,QVQLVESGGGLVQAGGSLRLSCAASGLIFKYNDMGWYRQAPGTEREFVAAISWRGGRTYYADSVKGRFTISRDNEKNTVYLQMNSLKPEDTAVYYCNAGYRIAQFPSPHIAYYGYGYWGQGTQVTVSS,high polyreactivity
21,QVQLVESGGGLVQAGGSLRLSCAASGRIFGPYTMAWYRQAPRKERELVAAISRRGGSTYYADSVKGRFTISRDNAKNTVYLQMTSLKPEDTAVYYCAAKIYFLAILYDYWGQGTQVTVSS,high polyreactivity
